Experimental data taken from PMC8833195.

Experiments:
Assay in all cases: SEC
[1] = target: HA ectodomain of H1N1 A/California/07/2009 with K51I + E103I (influenza A virus H1N1 A/California/07/2009)
[2] = target: repaired and stabilized HA of H3N2 A/Brisbane/10/2007 (P194L in HA1) (influenza A virus H3N2 A/Brisbane/10/2007)
[3] = target: repaired and stabilized HA of H3N2 A/Singapore/INFIMH/16/0019/2016 (P194L in HA1) (influenza A virus H3N2 A/Singapore/INFIMH/16/0019/2016)

“HA ectodomain of H1N1 A/California/07/2009 with K51I + E103I (domain or fragment)” was tested, and the stoichiometry N [1] was 3.
With “repaired and stabilized HA of H3N2 A/Brisbane/10/2007 (P194L in HA1) (domain or fragment)” the stoichiometry N [2] was 3.
“repaired and stabilized HA of H3N2 A/Singapore/INFIMH/16/0019/2016 (P194L in HA1) (domain or fragment)” gave a stoichiometry N [3] of 3.
